Data published in the RNAGym collection of RNA variant scans (doi:10.1101/gr.219683.116).

B1: mRNA-splicing (parent)
chain: AGUUGCUGCUGGGAGCUCCAGCACAGUGAAAUGGACAGAAGGGCAGAGCAA

Variants of: B1
Test: exon inclusion enrichment index; higher = more inclusion; WT1 exon 5 minigene, HEK293

First: AGUUACCACCGGGAGCUCUCGCACAGUGAAAUGGACAGAAGGGCAGAGCAA
Second: AGUUACCACCGGGAGCUCUUGCACAGUGAAAUGGACAGAAGGGCAGAGCAA
The “exon inclusion enrichment index” value of the first is higher: 1.64 for the first, 0.734 for the second.

First: AGUUACCACCGGGAGCUCUGGCACAGUGAAAUGGACAGAAGGGCAGAGCAA
Second: AGUUACCACCGGGAGCUCCAGCACAGUGAAAUGGACAGAUGGGCAGAGCAA
The “exon inclusion enrichment index” value of the first is lower: 0.888 for the first, 1.97 for the second.

Compared with AGUUACCACCGGGAGCUCCAGCACAGUGAAAUGGACAGAGGGGCAGAGCAA, AGUUACCACCGGGAGCUCCAGCACAGUGAAAUGGACAGACGGGCAGAGCAA is higher in “exon inclusion enrichment index” value: 1.93 for the first, 2.82 for the second.

Compared with AGUUACCACCGGGAGCUCCAGCACAGUGAAAUGGACAGGCGGGCAGAGCAA, AGUUACCACCGGGAGCUCCAGCACAGUGAAAUGGACAGGUGGGCAGAGCAA is lower in “exon inclusion enrichment index” value: 2.53 for the first, 0.283 for the second.

First: AGUUACCACCGGGAGCUCCAGCACAGUGAAAUGGACAGGGGGGCAGAGCAA
Second: AGUUACCACCGGGAGUGCCAGCACAGUGAAAUGGACAGAAGGGCAGAGCAA
The “exon inclusion enrichment index” value of the first is lower: 0.26 for the first, 0.815 for the second.

Compared with AGUUACCACCGGGAGUACCAGCACAGUGAAAUGGACAGAAGGGCAGAGCAA, AGUUACCACCGGGAGUCCCAGCACAGUGAAAUGGACAGAAGGGCAGAGCAA is lower in “exon inclusion enrichment index” value: 1.74 for the first, 1.33 for the second.

First: AGUUACCACCGGGAGCUUGAGCACAGUGAAAUGGACAGAAGGGCAGAGCAA
Second: AGUUACCACCGGGAGCUUUAGCACAGUGAAAUGGACAGAAGGGCAGAGCAA
The “exon inclusion enrichment index” value of the first is higher: 0.804 for the first, 0.0421 for the second.

First: AGUUACCACCGGGAGCUUAAGCACAGUGAAAUGGACAGAAGGGCAGAGCAA
Second: AGUUACCACCGGGAGGCCCAGCACAGUGAAAUGGACAGAAGGGCAGAGCAA
The “exon inclusion enrichment index” value of the first is lower: 0.212 for the first, 1.06 for the second.

First: AGUUACCACCGGGAGGACCAGCACAGUGAAAUGGACAGAAGGGCAGAGCAA
Second: AGUUACCACCGGGAGGGCCAGCACAGUGAAAUGGACAGAAGGGCAGAGCAA
The “exon inclusion enrichment index” value of the first is higher: 2.77 for the first, 0.238 for the second.

Going from AGUUACCACCGGGAGCUCCAGACCAGUGAAAUGGACAGAAGGGCAGAGCAA to AGUUACCACCGGGAGCUCCAGAGCAGUGAAAUGGACAGAAGGGCAGAGCAA, the “exon inclusion enrichment index” value falls from 3.53 to 2.59.

Compared with AGUUACCACCGGGAGCUCCAGAUCAGUGAAAUGGACAGAAGGGCAGAGCAA, AGUUACCACCGGGAGCUCCAGCACAGUGAAAUGGACAGAAGGGCGUAGCAA is higher in “exon inclusion enrichment index” value: 2.17 for the first, 2.26 for the second.

First: AGUUACCACCGGGAGCUCCAGCACAGUGAAAUGGACAGAAGGGCGAAGCAA
Second: AGUUACCACCGGGAGCUCCAGCACAGUGAAAUGGACAGAAGGGCGCAGCAA
The “exon inclusion enrichment index” value of the first is higher: 4.51 for the first, 3.06 for the second.

Going from AGUUACCACCGGGAGCUCGAGCACAGUGAAAUGGACAGAAGGGCAGAGCAA to AGUUACCACCGGGAGCUCUAGCACAGUGAAAUGGACAGAAGGGCAGAGCAA, the “exon inclusion enrichment index” value falls from 1.88 to 0.131.

Going from AGUUACCACCGGGAGCUCAAGCACAGUGAAAUGGACAGAAGGGCAGAGCAA to AGUUACCACCGGGAGCUCCAGCACAGUGAAAUGGACAGAAGGGCCGAGCAA, the “exon inclusion enrichment index” value rises from 1.39 to 2.28.

Going from AGUUACCACCGGGAGCUCCAGCACAGUGAAAUGGACAGAAGGGCUGAGCAA to AGUUACCACCGGGAGCUCCAGCACAGUGAAAUGGACAGAAGGGCGGAGCAA, the “exon inclusion enrichment index” value rises from 2.8 to 3.76.

Compared with AGUUACCACCGGGAGCUCCAGCACAGUGAAAUGGACUUAAGGGCAGAGCAA, AGUUACCACCGGGAGACCCAGCACAGUGAAAUGGACAGAAGGGCAGAGCAA is higher in “exon inclusion enrichment index” value: 0.601 for the first, 1.83 for the second.

Going from AGUUACCACCGGGAGAACCAGCACAGUGAAAUGGACAGAAGGGCAGAGCAA to AGUUACCACCGGGAGAGCCAGCACAGUGAAAUGGACAGAAGGGCAGAGCAA, the “exon inclusion enrichment index” value falls from 2.05 to 1.33.

Compared with AGUUACCACCGGGAGCUCCAGCACAGUGAAAUGGACAGAAGGGCCCAGCAA, AGUUACCACCGGGAGCUCCAGCACAGUGAAAUGGACAGAAGGGCCUAGCAA is lower in “exon inclusion enrichment index” value: 1.61 for the first, 1.12 for the second.

First: AGUUACCACCGGGAGCUCCAGCACAGUGAAAUGGACAGAAGGGCCAAGCAA
Second: AGUUACCACCGGGAGCUCCAGCACAGUGAAAUGGACAGAUCGGCAGAGCAA
The “exon inclusion enrichment index” value of the first is lower: 1.42 for the first, 3.14 for the second.

Compared with AGUUACCACCGGGAGCUCCAGCACAGUGAAAUGGACAGAUUGGCAGAGCAA, AGUUACCACCGGGAGCUCCAGCACAGUGAAAUGGACAGAUAGGCAGAGCAA is lower in “exon inclusion enrichment index” value: 1.26 for the first, 0.108 for the second.

First: AGUUACCACCGGGAGCUCCAGCACAGUGAAAUGGACAGAAGGGCUCAGCAA
Second: AGUUACCACCGGGAGCUCCAGCACAGUGAAAUGGACAGAAGGGCUAAGCAA
The “exon inclusion enrichment index” value of the first is lower: 1.55 for the first, 1.75 for the second.

First: AGUUACCACCGGGAGCUCCAGCACAGUGAAAUGGACAGAAGGGCUUAGCAA
Second: AGUUACCACCGGGAGCUCCAGCACAGUGAAAUGGACAGCCGGGCAGAGCAA
The “exon inclusion enrichment index” value of the first is lower: 0.84 for the first, 3.03 for the second.

First: AGUUACCACCGGGAGCUCCAGCACAGUGAAAUGGACAGCGGGGCAGAGCAA
Second: AGUUACCACCGGGAGCUCCAGCACAGUGAAAUGGACAGCUGGGCAGAGCAA
The “exon inclusion enrichment index” value of the first is higher: 2.18 for the first, 1.28 for the second.

Going from AGUUACCACCGGGAGCUCCAGCACAGUGAAAUGGACAGAAGGGCAGGACAA to AGUUACCACCGGGAGCUCCAGCACAGUGAAAUGGACAGAAGGGCAGGCCAA, the “exon inclusion enrichment index” value falls from 1.37 to 1.13.

Compared with AGUUACCACCGGGAGCUCCAGCACAGUGAAAUGGACAGAAGGGCAGGUCAA, AGUUACCACCGGGAGCUCCAGCACAGUGAAAUGGACAGACCGGCAGAGCAA is higher in “exon inclusion enrichment index” value: 0.325 for the first, 3.47 for the second.

For AGUUACCACCGGGAGCUCCAGCACAGUGAAAUGGACAGACAGGCAGAGCAA, the “exon inclusion enrichment index” value was 0.979.
